Measurements published in a protein production outcome set (Wang et al. 2014).

Assay: label from the status in PepcDB records
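Note: failed if final PepcDB status was selected cloned or expressed and not failed if soluble or beyond.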

Row | Sequence | protein production
1 | MSLDARFDIAHLARAELFSPKPQETLDFFTKFLGMYVTHREGQSVYLRGYEDPYPWSLKITEAPEAGMGHAAMRTSSPEALERRAKSLTDGNVDGTWSEDQFGYGKTFEYQSPDGHNLQLLWEAEKYVAPPELRSKILTRPSKKPLQGIPVKRIDHLNLMSSDVTAVKDSFERHLGFRTTERVVDGNVEIGAWMSSNLLGHEVACMRDMTGGHGKLHHLAFFYGTGQHNIDAVEMFRDYDIQIEAGPDKHGITQSQFLYVFEPGGNRIELFGEAGYLHLDPDAETKTWQMSDIDTGLAVGGAKLPWESYFTYGTPSPLSLDQHIEKYAHFGEGHHHHHH | not failed
2 | MSLDFHGVFPYLVSPVDAEGRVRADVMGRLCDDLIQAGVHGLTPLGSTGEFAYLGTAQREAVVRATIEAAQRRVPVVAGVASTSVADAVAQAKLYEKLGADGILAILEAYFPLKDAQIESYFRAIADAVEIPVVIYTNPQFQRSDLTLDVIARLAEHPRIRYIKDASTNTGRLLSIINRCGDALQVFSASAHIPAAVMLIGGVGWMAGPACIAPRQSVALYELCKAQRWDEALMLQRKLWRVNEAFAKFNLAACIKAGLALQGYDVGDPIPPQAALTAEERKAVEKVLAEIAEGHHHHHH | not failed
3 | MSLDKAIKEVRGNGKLKVAVFSDPDCPFCKRLEHEFEKMTDVTVYSFMMPIAGLHPDAARKAQILWCQPDRAKAWTDWMRKGKFPVGGSICDNPVAETTSLGEQFGFNGTPTLVFPNGRTQSGYSPMPQLEEIIRKNQQEGHHHHHH | not failed
4 | MSLDKVLEDEVVEDTGESQVFNLLNPEFVDFDTCLDPITNELPTSETTKPAGELRREKTPAKKGNSNSSSVDHRFTSASRAFTQKKLDDLKSLFVSLASKSHSNDQYVSYPVFQEYFGLSGSLGERIFDMVTQHRKDDKMTFEDLVIAKMTFEDLVIAKVHT | failed
5 | MSLDNSRTRPRVGHIQFLNCLPLYWGLARTGTLLDFELTKDTPEKLSEQLVRGDLDIGPVTLVEFLKNADDLVAFPDIAVGCDGPVMSCVIVSQVPLDRLDGARVALGSTSRTSVRLAQLLLSERFGVQPDYYTCPPDLSLMMQEADAAVLIGDAALRANMIDGPRYGLDVHDLGALWKEWTGLPFVFAVWAARRDYAEREPVITRKVHEAFLASRNLSLEEVEKVAEQAARWEAFDEDTLAKYFTTLDFRFGAPQLEAVTEFARRVGPTTGFPADVKVELLKPEGHHHHHH | not failed
6 | MSLDRIRLASLHDKVISADAAAAFIQDGMTVGMSGFTRAGEAKAVPQALVERAKQNPLKITLITGASLGNDLDKQLTEAGVLARRLPFQVDNTLRRAINNGEVMFIDQHLSETVEQMRNLQLKRPDVAVIEAIAITEDGGIIPTTSVGNSASFAIFAEKVIVEINTSLSEAFEGLHDIYIPSYRPTRQPIPLTKVDERIGTTAIQIDPAKIVGIVFNDTADSPSTVTLPDDETQGIANHLIAFFEKEVAEGRLPQNLGPLQAGIGSIANAVLTGLKDSNFEDLVMYSEVLQDCTFELIDAGKMKFASGSSITLSAKCGEKVFGNIEAYKDKLVLRPQEISNHPELVRRLGIIGINTALEFDIYGNVNSTHVCGTKMMNGIGGSGDFARNAHLAIFVTKSIAKGGDISSIVPMVSHVDHSEHDVDILVTEQGLADLRGLAPRERARAVIDHCVHPLYKDALNDYFSRASAKGGHTPHLLREALSWHVNFEENGHMLAIEPEAKSA | failed
7 | MSLDRPRCCLRGKECSINRFQQVESRWGYSGTSDRIRFSVNKRIFVVGFGLYGSIHGPTDYQVNIQIIHTDSNTVLGQNDTGFSCDGSASTFRVMFKEPVEVLPNVNYTACATLKGPDSHYGTKGMRKVTHESPTTGAKTCFTFCYAAGNNNGTSVEDGQIPEVIFYTEGHHHHHH | not failed
8 | MSLDSPLYGRSFADDKMRELFSAQSFISRCVETEVALARAQARLGIIPEDAAAGITAAARTFAPEMERLRDDTEIVGYPILPLVEQLSAHAGEAGKYLHWGATTQDIMDTATVLQIRDGLALISRRIESVRKALAALARNHRDTPMAGRTHLQHALPVTFGYKAAVWLSAFDRHAARLEEISPRVLVVEFSGASGTLASLGTRGLDVQRELARELNLGVPSITWHSARDAVAETVQFLALVSGSLGKLAMDISIMMTTELGEVAEPFVRHRGASSTMPQKQNPVSCELILAGARIVRNHATSMLDAMIHDFERATGPWHLEWSAVPEGFAVASGILYQAEFMLGGLQVFPDRMRENLDHSRGLIVAEAVMMALAPHTGRKEAHDIVYLGCRRAVEDKTGLFEVLRTMPEVAKPLGEEALRDLTDPRNYLGSAGAMVDNVLGGREGHHHHHH | not failed
9 | MSLEAVTILLADDEAILLLDFESTLTDAGFLVTAVSSGAKAIEMLKSGAAIDGVVTDIRFCQPPDGWQVARVAREIDPNMPIVYISGHAALEWASNGVPDSIILEKPFTSAQLITAVSQLLNAREGHHHHHH | not failed
10 | MSLEDHAEELASDLGVDKEEVTRDLENLVNYSVPMDEAKQSLRRKYGDGSSGGDSTPSSKAINEVSTEDSNVTVTAVVLTSGRRSIQYNGEQHVIREGELADETGKISYTAWDGFSGDLQPGQTVQLGNAGVREWDGQPELNLGDSTDPEVVDETLDIDYDVGGRAALQDLAPGDRGITVEVQVLECEQKVIDGRDGETTILSGVLGDESGRLPFTDWDPHDEIEEGASVRLDETFVREFRGAPSVNVSEFSAVTALDRTVGVTEDAPRLSVREAVESGGLFDVELAGNVIEVRDGSGLIERCPECGRVIQNGQCRSHGAVEGEDDLRTKAILDDGTDTVTAVLDDELTARVYGGDLDDAREHARDAMDKEVVAERISDRIVGREYVVRGSLSVDEYGANLTASTFAEADDDPATRAQALLQEADTLEHHHHHH | not failed
11 | MSLEEVIEQLREANEPVPVPLELPDEDQLVEIEEQLFINIPFVFKEFLLTVSDVVYGSLEPVTVTDPQSHTYLPEVCATAWDLGVPRELIPICQDGEDYYCVEEDGTVLLWSAEEELVTEESWESVWHWARDVWLESEGHHHHHH | not failed
12 | MSLEKLKLIGDERLDYLLAENLRIIQSPSVFSFSIDAVLLAKFSYLPIRKGKIIDLCSGNGIIPLLLSTRTKAKIVGVEIQERLADMAKRSVAYNQLEDQIEIIEYDLKKITDLIPKERADIVTCNPPYFATPDTSLKNTNEHFRIARHEVMCTLEDTIRVAASLLKQGGKANFVHRPERLLDIIDIMRKYRLEPKRIQFVHPRSDREANTVLVEGIKDGKPGVKYVPPVIVYDELGEYTPVIKEILYGESEGHHHHHH | not failed
13 | MSLEQASVTNDFSENKQGCIQHPWQGKKVGYIGDSITDPNCYGDNIKKYWDFLKEWLGITPFVYGISGRQWDDVPRQAEKLKKEHGGEVDAILVFMGTNDYNSSVPIGEWFTEQEEQVLSAHGEMKKMVTRKKRTPVMTQDTYRGRINIGITQLKKLFPDKQIVLLTPLHRSLANFGDKNVQPDESYQNGCGEYIDAYVQAIKEAGNIWGIPVIDFNAVTGMNPMVEEQLIYFYDAGYDRLHPDTKGQERMARTLMYQLLALPVAFEGHHHHHH | not failed
14 | MSLETVRLQRELIEAQRQTYNEMRTYFTVNGVEGVIGAVFDEGVITLRVPSEVLFAPGAVELAPGADRVLATLKDLFIRRREQNINIKGFTDDVQPSANARFKDNWEVSALRSVNVLRYFLGAGIEPARLTATGLGELDPLFPNTSDENRARNRRVEFVLERRVVREGHHHHHH | not failed
15 | MSLEWQDLAQLPVSIFKDYVTDAQDAEKPFIWTEVFLREINRSNQEIILHIWPMTKTVILGMLDRELPHLELAKKEIISRGYEPVVRNFGGLAVVADEGILNFSLVIPDVFERKLSISDGYLIMVDFIRSIFSDFYQPIEHFEVETSYCPGKFDLSINGKKFAGLAQRRIKNGIAVSIYLSVCGDQKGRSQMISDFYKIGLGDTGSPIAYPNVDPEIMANLSDLLDCPMTVEDVIDRMLISLKQVGFNDRLLMIRPDLVAEFDRFQAKSMANKGMVSRDEEGHHHHHH | not failed
16 | MSLFMSCVGILVLLFIGFLLSENKKAINVRTIVIALITQISFGAFVMYVPLGQGILQMMSDAVNHIINFSNEGLTFVFGDLANYKVGFIFVINVLCVVIFISALISVLYYLKIMQFVINLIGGALSKLFGTSKAESMSATANIFVGPIEAPSMVRPLIKKMTRSELFAVMTGGLASVAGGTMIGYINLGIDPKYILTACFMTAPAGLLFAKLLCPQTEQEKITNEIEIDDETTPKSLLDAITDGSIMGMNQVATVTALLISFVALIALVNSLVGGIGDLISIEGLSLELIIGYILSPLAFLMGVPWSEAVTAASLIGQKIAVNEFVAYINFIEIAETLSPKTQAIVVFSLCGFANIGSLAMVIGGLGAICPNKRHILSEIGPRVLMAAILANLMSGTIAGALLSFS | failed
17 | MSLGAFLDKPKTEKHNAHGAGNGLRYGLSSMQGWRVEMEDAHTAVVGIPHGLEDWSFFAVYDGHAGSRVANYCSTHLLEHITTNEDFRAAGKSGSALELSVENVKNGIRTGFLKIDEYMRNFSDLRNGMDRSGSTAVGVMISPKHIYFINCGDSRAVLYRNGQVCFSTQDHKPCNPREKERIQNAGGSVMIQRVNGSLAVSRALGDYDYKCVDGKGPTEQLVSPEPEVYEILRAEEDEFIILACDGIWDVMSNEELCEYVKSRLEVSDDLENVCNWVVDTCLHKGSRDNMSIVLVCFSNEGHHHHHH | not failed
18 | MSLGFVTAAYIIAALLFIMSLAGLSKHETAKAGCWYGISGMAIALFATIFGPQSYGTIWILIAMAIGGYIGIQKALKVEMTAMPELVAILHSFVGLAAVLVGFNSYGLHNDPLIPSNLDAVARANFIVEQQTLATIHYIEVFLGIFIGAVTFSGSLIAFGKLSGNLFGCKVSSVALNLPNKHKLNLAALIISGLLMMVFLNNPVNIFPVLIMTIIALALGWHLVASIGGADMPVVVSMLNSYSGWAAAAAGFMLSNDLLIVTGALVGSSGAILSYIMCKAMNRSFISVIAGGFGNEMKADSAAEQAQGEHRETTVEDVAEMLKNAHSVIITPGYGMAVAQAQYPVAEITAKLREKGINVRFGIHPVAGRLPGHMNVLLAEAKVPYDVVLEMDEINDDFENTDVVLVIGANDTVNPAALDDPSSPIAGMPVLEVWKAQNVVVFKRSMAVGYAGVQNPLFFKENTQMLFGDAKERVDDILRALN | failed
19 | MSLGHGDEGITPLSSEIVNFSTTVWTDGDKDHLEKHLVENLNCIRHYPEPDAGTLRQMLAKRNSVDNNAILVTNGPTAAFYQIAQAFRGSRSLIAIPSFAEYEDACRMYEHEVCFYPSNEDIGEADFSNMDFCWLCNPNNPDGRLLQRTEILRLLNDHPDTTFVLDQSYVSFTTEEVIRPADIKGRKNLVMVYSFSHAYGIPGLRIGYIVANKDFMKRVAAFSTPWAVNALAIEAAKFILIHPAQFTLPIRKWQRNTVDFITALNRLDGVEVHPSGTTFFLLRLKKGTAAELKKYMLEEYNMLIRDASNFRGLDESYVRITTQRPAQNQLFIKALETFLEKYEGHHHHHH | not failed
20 | MSLHAAAVGPSVLPDLREQVEQIIAEARRQGASACEVAVSLEQGLSTSVRQGEVETVEFNRDQGFGITLYAGQRKGSASTSATGEAAIRETVAAALAIARHTSEDECAGLADAALMARELPELDLYHPWSLSPEQAVERALACEAAAFAADKRVTKADGTTLNTHQGCRVYGNSHGFIGGYASTRHSLSCVMIAEGEGQMQRDYWYDVNRRGEALASAESIGRRAAERAASRLGARPVQTAEVPVLFAPEIAVGLFGHFLGAISGGSLYRKSSFLEGALGQRLFPEWLSIDERPHLVGALGSASFDSDGLATYAKPFVENGELVSYVLGTYSGRKLGLPSTANAGGVHNLFVSHGDEDQAALIRRMERGLLVTELMGQGVNLVTGDYSRGAAGYWVENGEIQFPVQEVTIAANLRDLFRRIVAVGKDIERRGNLHTGSVLVESMMVAGR | not failed
